Results reported in US20090099029.
Numbering of substitutions follows the chain as printed.

T1: Bovine, dephosphorylated, Myelin Basic Protein (MBP), P02687
T1 chain: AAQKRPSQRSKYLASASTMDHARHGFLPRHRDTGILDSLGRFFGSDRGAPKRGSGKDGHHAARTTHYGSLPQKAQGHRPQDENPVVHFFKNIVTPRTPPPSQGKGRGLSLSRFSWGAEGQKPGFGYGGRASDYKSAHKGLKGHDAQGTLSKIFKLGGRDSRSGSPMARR

B1: MAP2K6(MKK6) (protein)
chain: MSQSKGKKRNPGLKIPKEAFEQPQTSSTPPRDLDSKACISIGNQNFEVKADDLEPIMELGRGAYGVVEKMRHVPSGQIMAVKRIRATVNSQEQKRLLMDLDISMRTVDCPFTVTFYGALFREGDVWICMELMDTSLDKFYKQVIDKGQTIPEDILGKIAVSIVKALEHLHSKLSVIHRDVKPSNVLINALGQVKMCDFGISGYLVDSVAKTIDAGCKPYMAPERINPELNQKGYSVKSDIWSLGITMIELAILRFPYDSWGTPFQQLKQVVEEPSPQLPADKFSAEFVDFTSQCLKKNSKERPTYPELMQHPFFTLHESKGTDVASFVKLILGD
B2: MAP2K6, mutant (protein)
chain: B1 chain with S207E, T211E
B3: MAP3K9(MLK1) (protein)
chain: MEPSRALLGCLASAAAAAPPGEDGAGAGAEEEEEEEEEAAAAVGPGELGCDAPLPYWTAVFEYEAAGEDELTLRLGDVVEVLSKDSQVSGDEGWWTGQLNQRVGIFPSNYVTPRSAFSSRCQPGGEDPSCYPPIQLLEIDFAELTLEEIIGIGGFGKVYRAFWIGDEVAVKAARHDPDEDISQTIENVRQEAKLFAMLKHPNIIALRGVCLKEPNLCLVMEFARGGPLNRVLSGKRIPPDILVNWAVQIARGMNYLHDEAIVPIIHRDLKSSNILILQKVENGDLSNKILKITDFGLAREWHRTTKMSAAGTYAWMAPEVIRASMFSKGSDVWSYGVLLWELLTGEVPFRGIDGLAVAYGVAMNKLALPIPSTCPEPFAKLMEDCWNPDPHSRPSFTNILDQLTTIEESGFFEMPKDSFHCLQDNWKHEIQEMFDQLRAKEKELRTWEEELTRAALQQKNQEELLRRREQELAEREIDILERELNIIIHQLCQEKPRVKK
B4: MAP3K5(ASK1) (protein)
chain: MSTEADEGITFSVPPFAPSGFCTIPEGGICRRGGAAAVGEGEEHQLPPPPPGSFWNVESAAAPGIGCPAATSSSSATRGRGSSVGGGSRRTTVAYVINEASQGQLVVAESEALQSLREACETVGATLETLHFGKLDFGETTVLDRFYNADIAVVEMSDAFRQPSLFYHLGVRESFSMANNIILYCDTNSDSLQSLKEIICQKNTMCTGNYTFVPYMITPHNKVYCCDSSFMKGLTELMQPNFELLLGPICLPLVDRFIQLLKVAQASSSQYFRESILNDIRKARNLYTGKELAAELARIRQRVDNIEVLTADIVINLLLSYRDIQDYDSIVKLVETLEKLPTFDLASHHHVKFHYAFALNRRNLPGDRAKALDIMIPMVQSEGQVASDMYCLVGRIYKDMFLDSNFTDTESRDHGASWFKKAFESEPTLQSGINYAVLLLAAGHQFESSFELRKVGVKLSSLLGKKGNLEKLQSYWEVGFFLGASVLANDHMRVIQASEKLFKLKTPAWYLKSIVETILIYKHFVKLTTEQPVAKQELVDFWMDFLVEATKTDVTVVRFPVLILEPTKIYQPSYLSINNEVEEKTISIWHVLPDDKKGIHEWNFSASSVRGVSISKFEERCCFLYVLHNSDDFQIYFCTELHCKKFFEMVNTITEEKGRSTEEGDCESDLLEYDYEYDENGDRVVLGKGTYGIVYAGRDLSNQVRIAIKEIPERDSRYSQPLHEEIALHKHLKHKNIVQYLGSFSENGFIKIFMEQVPGGSLSALLRSKWGPLKDNEQTIGFYTKQILEGLKYLHDNQIVHRDIKGDNVLINTYSGVLKISDFGTSKRLAGINPCTETFTGTLQYMAPEIIDKGPRGYGKAADIWSLGCTIIEMATGKPPFYELGEPQAAMFKVGMFKVHPEIPESMSAEAKAFILKCFEPDPDKRACANDLLVDEFLKVSSKKKKTQPKLSALSAGSNEYLRSISLPVPVLVEDTSSSSEYGSVSPDTELKVDPFSFKTRAKSCGERDVKGIRTLFLGIPDENFEDHSAPPSPEEKDSGFFMLRKDSERRATLHRILTEDQDKIVRNLMESLAQGAEEPKLKWEHITTLIASLREFVRSTDRKIIATTLSKLKLELDFDSHGISQVQVVLFGFQDAVNKVLRNHNIKPHWMFALDSIIRKAVQTAITILVPELRPHFSLASESDTADQEDLDVEDDHEEQPSNQTVRRPQAVIEDAVATSGVSTLSSTVSHDSQSAHRSLNVQLGRMKIETNRLLEELVRKEKELQALLHRAIEEKDQEIKHLKLKSQPIEIPELPVFHLNSSGTNTEDSELTDWLRVNGADEDTISRFLAEDYTLLDVLYYVTRDDLKCLRLRGGMLCTLWKAIIDFRNKQT
B5: MAP2K3(MEK3) (protein)
chain: MSKPPAPNPTPPRNLDSRTFITIGDRNFEVEADDLVTISELGRGAYGVVEKVRHAQSGTIMAVKRIRATVNSQEQKRLLMDLDINMRTVDCFYTVTFYGALFREGDVWICMELMDTSLDKFYRKVLDKNMTIPEDILGEIAVSIVRALEHLHSKLSVIHRDVKPSNVLINKEGHVKMCDFGISGYLVDSVAKTMDAGCKPYMAPERINPELNQKGYNVKSDVWSLGITMIEMAILRFPYESWGTPFQQLKQVVEEPSPQLPADRFSPEFVDFTAQCLRKNPAERMSYLELMEHPFFTLHKTKKTDIAAFVKEILGEDS
B6: MAP3K11(MLK3) (protein)
chain: MEPLKSLFLKSPLGSWNGSGSGGGGGGGGGRPEGSPKAAGYANPVWTALFDYEPSGQDELALRKGDRVEVLSRDAAISGDEGWWAGQVGGQVGIFPSNYVSRGGGPPPCEVASFQELRLEEVIGIGGFGKVYRGSWRGELVAVKAARQDPDEDISVTAESVRQEARLFAMLAHPNIIALKAVCLEEPNLCLVMEYAAGGPLSRALAGRRVPPHVLVNWAVQIARGMHYLHCEALVPVIHRDLKSNNILLLQPIESDDMEHKTLKITDFGLAREWHKTTQMSAAGTYAWMAPEVIKASTFSKGSDVWSFGVLLWELLTGEVPYRGIDCLAVAYGVAVNKLTLPIPSTCPEPFAQLMADCWAQDPHRRPDFASILQQLEALEAQVLREMPRDSFHSMQEGWKREIQGLFDELRAKEKELLSREEELTRAAREQRSQAEQLRRREHLLAQWELEVFERELTLLLQQVDRERPHVRRRRGTFKRSKLRARDGGERISMPLDFKHRITVQASPGLDRRRNVFEVGPGDSPTFPRFRAIQLEPAEPGQAWGRQSPRRLEDSSNGERRACWAWGPSSPKPGEAQNGRRRSRMDEATWYLDSDDSSPLGSPSTPPALNGNPPRPSLEPEEPKRPVPAERGSSSGTPKLIQRALLRGTALLASLGLGRDLQPPGGPGRERGESPTTPPTPTPAPCPTEPPPSPLICFSLKTPDSPPTPAPLLLDLGIPVGQRSAKSPRREEEPRGGTVSPPPGTSRSAPGTPGTPRSPPLGLISRPRPSPLRSRIDPWSFVSAGPRPSPLPSPQPAPRRAPWTLFPDSDPFWDSPPANPFQGGPQDCRAQTKDMGAQAPWVPEAGP
B7: MAPK12(p38gamma) (protein)
chain: MSSPPPARSGFYRQEVTKTAWEVRAVYRDLQPVGSGAYGAVCSAVDGRTGAKVAIKKLYRPFQSELFAKRAYRELRLLKHMRHENVIGLLDVFTPDETLDDFTDFYLVMPFMGTDLGKLMKHEKLGEDRIQFLVYQMLKGLRYIHAAGIIHRDLKPGNLAVNEDCELKILDFGLARQADSEMTGYVVTRWYRAPEVILNWMRYTQTVDIWSVGCIMAEMITGKTLFKGSDHLDQLKEIMKVTGTPPAEFVQRLQSDEAKNYMKGLPELEKKDFASILTNASPLAVNLLEKMLVLDAEQRVTAGEALAHPYFESLHDTEDEPQVQKYDDSFDDVDRTLDEWKRVTYKEVLSFKPPRQLGARVSKETPL
B8: MAP4K4(HGK) (protein)
chain: MANDSPAKSLVDIDLSSLRDPAGIFELVEVVGNGTYGQVYKGRHVKTGQLAAIKVMDVTEDEEEEIKLEINMLKKYSHHRNIATYYGAFIKKSPPGHDDQLWLVMEFCGAGSITDLVKNTKGNTLKEDWIAYISREILRGLAHLHIHHVIHRDIKGQNVLLTENAEVKLVDFGVSAQLDRTVGRRNTFIGTPYWMAPEVIACDENPDATYDYRSDLWSCGITAIEMAEGAPPLCDMHPMRALFLIPRNPPPRLKSKKWSKKFFSFIEGCLVKNYMQRPSTEQLLKHPFIRDQPNERQVRIQLKDHIDRTRKKRGEKDETEYEYSGSEE
B9: MAPK11(p38B) (protein)
chain: MSGPRAGFYRQELNKTVWEVPQRLQGLRPVGSGAYGSVCSAYDARLRQKVAVKKLSRPFQSLIHARRTYRELRLLKHLKHENVIGLLDVFTPATSIEDFSEVYLVTTLMGADLNNIVKCQALSDEHVQFLVYQLLRGLKYIHSAGIIHRDLKPSNVAVNEDCELRILDFGLARQADEEMTGYVATRWYRAPEIMLNWMHYNQTVDIWSVGCIMAELLQGKALFPGSDYIDQLKRIMEVVGTPSPEVLAKISSEHARTYIQSLPPMPQKDLSSIFRGANPLAIDLLGRMLVLDSDQRVSAAEALAHAYFSQYHDPEDEPEAEPYDESVEAKERTLEEWKELTYQEVLSFKPPEPPKPPGSLEIEQ
B10: MAP2K2(MEK2) (protein)
chain: MLARRKPVLPALTINPTIAEGPSPTSEGASEANLVDLQKKLEELELDEQQKKRLEAFLTQKAKVGELKDDDFERISELGAGNGGVVTKVQHRPSGLIMARKLIHLEIKPAIRNQIIRELQVLHECNSPYIVGFYGAFYSDGEISICMEHMDGGSLDQVLKEAKRIPEEILGKVSIAVLRGLAYLREKHQIMHRDVKPSNILVNSRGEIKLCDFGVSGQLIDSMANSFVGTRSYMAPERLQGTHYSVQSDIWSMGLSLVELAVGRYPIPPPDAKELEAIFGRPVVDGEEGEPHSISPRPRPPGRPVSGHGMDSRPAMAIFELLDYIVNEPPPKLPNGVFTPDFQEFVNKCLIKNPAERADLKMLTNHTFIKRSEVEEVDFAGWLCKTLRLNQPGTPTRTAV
B11: MAP3K2(MEKK2) (protein)
chain: MDDQQALNSIMQDLAVLHKASRPALSLQETRKAKSSSPKKQNDVRVKFEHRGEKRILQFPRPVKLEDLRSKAKIAFGQSMDLHYTNNELVIPLTTQDDLDKAVELLDRSIHMKSLKILLVINGSTQATNLEPLPSLEDLDNTVFGAERKKRLSIIGPTSRDRSSPPPGYIPDELHQVARNGSFTSINSEGEFIPESMDQMLDPLSLSSPENSGSGSCPSLDSPLDGESYPKSRMPRAQSYPDNHQEFSDYDNPIFEKFGKGGTYPRRYHVSYHHQEYNDGRKTFPRARRTQGTSLRSPVSFSPTDHSLSTSSGSSIFTPEYDDSRIRRRGSDIDNPTLTVMDISPPSRSPRAPTNWRLGKLLGQGAFGRVYLCYDVDTGRELAVKQVQFDPDSPETSKEVNALECEIQLLKNLLHERIVQYYGCLRDPQEKTLSIFMEYMPGGSIKDQLKAYGALTENVTRKYTRQILEGVHYLHSNMIVHRDIKGANILRDSTGNVKLGDFGASKRLQTICLSGTGMKSVTGTPYWMSPEVISGEGYGRKADIWSVACTVVEMLTEKPPWAEFEAMAAIFKIATQPTNPKLPPHVSDYTRDFLKRIFVEAKLRPSADELLRHMFVHYH

Molecular target: T1, Bovine, dephosphorylated, Myelin Basic …

Row | Protein | MBP Kinase Activity
1 | B1 | Weak
2 | B2 | Negative
3 | B3 | Strong
4 | B4 | Weak
5 | B5 | Negative
6 | B6 | Negative
7 | B7 | Strong
8 | B8 | Strong
9 | B9 | Strong
10 | B10 | Negative
11 | B11 | Weak
